Source: patent US20240132578A1

Columns and labels:
[1] = target: HIV-1 Env of isolate 92BR020 (Clade B) (HIV-1); assay: cell-based or functional assay
[2] = target: HIV-1 Env of isolate 92UG005 (Clade D) (HIV-1); assay: cell-based or functional assay
[3] = target: HIV-1 Env of isolate 93UG077 (Clade A) (HIV-1); assay: cell-based or functional assay
[4] = target: HIV-1 93UG077 Env (HIV-1); assay: cell-based or functional assay
[5] = target: HIV-1 JR-CSF Env T388A (HIV-1 isolate JR-CSF) (UniProt P20871); assay: cell-based or functional assay
[6] = target: HIV-1 MGRM-AG-005 Env (HIV-1); assay: cell-based or functional assay
[7] = target: HIV-1 MGRM-D-001 Env (HIV-1); assay: cell-based or functional assay
[8] = target: HIV-1 envelope glycoprotein (Env) of isolate MG RM-A-002, subtype A (HIV-1); assay: cell-based or functional assay
[9] = target: aMLV envelope protein (negative control pseudovirus); assay: cell-based or functional assay
[10] = target: HIV-1 92TH021 envelope glycoprotein (Env) on pseudovirus (HIV-1); assay: cell-based or functional assay
[11] = target: HIV-1 93IN905 envelope glycoprotein (Env) on pseudovirus (HIV-1); assay: cell-based or functional assay
[12] = target: HIV-1 94UG103 envelope glycoprotein (Env) on pseudovirus (HIV-1); assay: cell-based or functional assay
[13] = target: HIV-1 APV13 envelope glycoprotein (Env) on pseudovirus (HIV-1); assay: cell-based or functional assay
[14] = target: HIV-1 JRCSF envelope glycoprotein (Env) on pseudovirus (HIV-1) (UniProt P20871); assay: cell-based or functional assay
[15] = target: HIV-1 JRFL envelope glycoprotein (Env) on pseudovirus (HIV-1); assay: cell-based or functional assay
[16] = target: HIV-1 MGRM-A-010 envelope glycoprotein (Env) on pseudovirus (HIV-1); assay: cell-based or functional assay
[17] = target: HIV-1 MGRM-AG-005 envelope glycoprotein (Env) on pseudovirus (HIV-1); assay: cell-based or functional assay
[18] = target: HIV-1 MGRM-C-026 envelope glycoprotein (Env) on pseudovirus (HIV-1); assay: cell-based or functional assay
[19] = target: HIV-1 MGRM-D-018 envelope glycoprotein (Env) on pseudovirus (HIV-1); assay: cell-based or functional assay
[20] = target: HIV-1 NL43 envelope glycoprotein (Env) on pseudovirus (HIV-1); assay: cell-based or functional assay
[21] = target: HIV-1 Env of isolate APV-17 (Clade B) (HIV-1); assay: cell-based or functional assay
[22] = target: HIV-1 Env of isolate APV-6 (Clade B) (HIV-1); assay: cell-based or functional assay
[23] = target: HIV-1 JR-CSF Env N262A (HIV-1 (isolate JR-CSF)) (UniProt P20871); assay: cell-based or functional assay
[24] = target: JR-FL GP120 ΔV3 (HIV-1 JR-FL); assay: ELISA, antigen-coated wells, mAb titrated; EC50 by nonlinear regression
[25] = target: HIV-1 NL43 envelope protein (Env) on pseudotyped virus (HIV-1 strain NL43); assay: cell-based or functional assay

| Substance | IC50, pseudovirus neutralization [10] | IC50, pseudovirus neutralization [11] | IC50, pseudovirus neutralization [12] | IC50, pseudovirus neutralization [13] | IC50, pseudovirus neutralization [14] | IC50, pseudovirus neutralization [15] | IC50, pseudovirus neutralization [16] | IC50, pseudovirus neutralization [17] | IC50, pseudovirus neutralization [18] | IC50, pseudovirus neutralization [19] | IC50, pseudovirus neutralization [20] | other results |
| --- | --- | --- | --- | --- | --- | --- | --- | --- | --- | --- | --- | --- |
| 4E10 (antibody) |  |  |  |  |  |  |  |  |  |  |  | IC90 (neutralization of pseudovirus) [1]: > 50 µg/mL; IC90 (neutralization of pseudovirus) [2]: > 50 µg/mL; IC90 (neutralization of pseudovirus) [3]: > 50 µg/mL |
| 4858_P08 (PGT-123) (antibody) |  |  |  |  |  |  |  |  |  |  |  | IC50, pseudovirus neutralization [4]: 0.0303 µg/mL; Fold IC50 increase relative to wild-type [5]: 0.2 fold; IC50, pseudovirus neutralization [6]: 0.104 µg/mL; IC50, pseudovirus neutralization [7]: 0.215 µg/mL; IC50, pseudovirus neutralization [8]: 0.011 µg/mL; IC50, pseudovirus neutralization [9]: > 10 µg/mL; IC80 (pseudovirus neutralization) [9]: > 10 µg/mL; IC90 (pseudovirus neutralization) [9]: > 10 µg/mL; IC95 (pseudovirus neutralization) [9]: > 10 µg/mL |
| PGT-143 (4980_N08) (antibody) | 0.0028 µg/mL | 0.0021 µg/mL | > 10 µg/mL | > 10 µg/mL | 0.0064 µg/mL | > 10 µg/mL | 0.0657 µg/mL | 0.244 µg/mL | > 10 µg/mL | > 10 µg/mL | 0.585 µg/mL |  |
| PGT-142 (4995_E20) (antibody) | 0.0022 µg/mL | 0.0017 µg/mL | > 10 µg/mL | > 10 µg/mL | 0.0085 µg/mL | > 10 µg/mL | 0.0578 µg/mL | 0.22 µg/mL | > 10 µg/mL | > 10 µg/mL | 0.712 µg/mL |  |
| b12 (antibody) |  |  |  |  |  |  |  |  |  |  |  | IC90 (neutralization of pseudovirus) [1]: > 50 µg/mL; IC90 (neutralization of pseudovirus) [2]: > 50 µg/mL; IC90 (neutralization of pseudovirus) [3]: > 50 µg/mL; IC90 (neutralization of pseudovirus) [21]: > 50 µg/mL; IC90 (neutralization of pseudovirus) [22]: > 50 µg/mL |
| 5114_A19 (PGT-128) (antibody) |  |  |  |  |  |  |  |  |  |  |  | Fold IC50 increase relative to wild-type [23]: 1.6 fold; EC50 [24]: 7.8 µg/mL |
| 1495_C14 (PGC14) (antibody) |  |  |  |  |  |  |  |  |  |  |  | IC50, Neutralizing Antibody Assay, Virus/Ab Incubation 1 hour [25]: 0.35 µg/mL; IC50, Neutralizing Antibody Assay, Virus/Ab Incubation 18 hour [25]: 0.15 µg/mL |
| PGT-144 (4970_K22) (antibody) | 0.0934 µg/mL | 0.158 µg/mL | > 10 µg/mL | > 10 µg/mL | 0.128 µg/mL | > 10 µg/mL | 4.02 µg/mL | > 10 µg/mL | > 10 µg/mL | > 10 µg/mL | > 10 µg/mL |  |
| PGT-141 (4964_G22; 4993_K13) (antibody) | 0.0019 µg/mL | 0.0016 µg/mL | > 10 µg/mL | > 10 µg/mL | 0.0047 µg/mL | > 10 µg/mL | 0.0563 µg/mL | 0.392 µg/mL | > 10 µg/mL | > 10 µg/mL | 0.856 µg/mL |  |
| 2G12 (antibody) |  |  |  |  |  |  |  |  |  |  |  | IC90 (neutralization of pseudovirus) [1]: 24.1 µg/mL; IC90 (neutralization of pseudovirus) [2]: > 50 µg/mL; IC90 (neutralization of pseudovirus) [3]: > 50 µg/mL |
| 5329_C19 (PGT-136) (antibody) |  |  |  |  |  |  |  |  |  |  |  | EC50 [24]: 0.1 µg/mL |
